Measurements: the supplement of paper PMC9112550, “Optimization of the antimicrobial peptide Bac7 by deep mutational scanning” (BMC Biology, 2022)

System: Escherichia coli TOP10
Assay: shrunken log2 fold change of peptide-encoding DNA abundance (4.5 h post-induction vs induction); higher = less antimicrobial activity (less host growth inhibition)
Settings: time post-induction: 4.5 h; library: site-saturation at positions 5, 18, 19, 20
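Also: peptides expressed intracellularly from a pBAD plasmid library in pooled LB shake-flask culture, induced with 0.3% L-arabinose, DNA abundance read by NGS, three biological replicates, DESeq2 with apeglm shrinkage.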

RRIRVRPPRLPRPRPRPALQPRP
shrunken log2 fold change: 0.0743

RRIRWRPPRLPRPRPRPKCYPRP
shrunken log2 fold change: -0.0376

RRIRSRPPRLPRPRPRPDRDPRP
shrunken log2 fold change: -0.0344

RRIRSRPPRLPRPRPRPCVMPRP
shrunken log2 fold change: 0.0389

RRIRSRPPRLPRPRPRPPTFPRP
shrunken log2 fold change: -0.0599

RRIRDRPPRLPRPRPRPTMWPRP
shrunken log2 fold change: 0.176

RRIRTRPPRLPRPRPRPFAWPRP
shrunken log2 fold change: -0.0156

RRIRARPPRLPRPRPRPAWFPRP
shrunken log2 fold change: 0.303

RRIRIRPPRLPRPRPRPHEEPRP
shrunken log2 fold change: -0.031

RRIRNRPPRLPRPRPRPHTCPRP
shrunken log2 fold change: 0.0167

RRIRTRPPRLPRPRPRPRMAPRP
shrunken log2 fold change: 0.288

RRIRVRPPRLPRPRPRPHFQPRP
shrunken log2 fold change: -0.154

RRIRKRPPRLPRPRPRPRVCPRP
shrunken log2 fold change: 0.282

RRIRVRPPRLPRPRPRPSHEPRP
shrunken log2 fold change: -0.225

RRIRSRPPRLPRPRPRPGNPPRP
shrunken log2 fold change: 0.0113

RRIRCRPPRLPRPRPRPQHFPRP
shrunken log2 fold change: -0.0667

RRIRHRPPRLPRPRPRPHHTPRP
shrunken log2 fold change: -0.71

RRIRRRPPRLPRPRPRPLEHPRP
shrunken log2 fold change: 0.21

RRIRGRPPRLPRPRPRPLDEPRP
shrunken log2 fold change: 1.24

RRIRPRPPRLPRPRPRPFNVPRP
shrunken log2 fold change: -0.0975

RRIRQRPPRLPRPRPRPETFPRP
shrunken log2 fold change: -0.0643

RRIRIRPPRLPRPRPRPNGYPRP
shrunken log2 fold change: -0.0764

RRIRRRPPRLPRPRPRPWIPPRP
shrunken log2 fold change: -0.129

RRIRTRPPRLPRPRPRPMGWPRP
shrunken log2 fold change: 0.293

RRIRWRPPRLPRPRPRPQVPPRP
shrunken log2 fold change: -0.211

RRIRTRPPRLPRPRPRPVAPPRP
shrunken log2 fold change: 0.389

RRIRKRPPRLPRPRPRPHSHPRP
shrunken log2 fold change: 0.179

RRIRARPPRLPRPRPRPPEQPRP
shrunken log2 fold change: 0.941

RRIRPRPPRLPRPRPRPCKSPRP
shrunken log2 fold change: -0.0854

RRIRLRPPRLPRPRPRPLVDPRP
shrunken log2 fold change: -0.0956

RRIRSRPPRLPRPRPRPEQFPRP
shrunken log2 fold change: 0.0895

RRIRARPPRLPRPRPRPDPCPRP
shrunken log2 fold change: 0.428

RRIRMRPPRLPRPRPRPQVMPRP
shrunken log2 fold change: 0.0337

RRIRCRPPRLPRPRPRPRALPRP
shrunken log2 fold change: 0.113

RRIRSRPPRLPRPRPRPEAAPRP
shrunken log2 fold change: 0.873

RRIRYRPPRLPRPRPRPPQTPRP
shrunken log2 fold change: -0.314

RRIRFRPPRLPRPRPRPYGWPRP
shrunken log2 fold change: -0.0451

RRIRDRPPRLPRPRPRPINTPRP
shrunken log2 fold change: -0.115

RRIRERPPRLPRPRPRPSESPRP
shrunken log2 fold change: -0.577

RRIRVRPPRLPRPRPRPPVWPRP
shrunken log2 fold change: 0.312

RRIRYRPPRLPRPRPRPKWHPRP
shrunken log2 fold change: -0.358

RRIRTRPPRLPRPRPRPCILPRP
shrunken log2 fold change: -0.831

RRIRCRPPRLPRPRPRPRQKPRP
shrunken log2 fold change: 0.466

RRIRRRPPRLPRPRPRPMELPRP
shrunken log2 fold change: 0.212

RRIRIRPPRLPRPRPRPPVQPRP
shrunken log2 fold change: -0.0716

RRIRWRPPRLPRPRPRPKYIPRP
shrunken log2 fold change: -0.0755

RRIRWRPPRLPRPRPRPFDWPRP
shrunken log2 fold change: 0.344

RRIRWRPPRLPRPRPRPMRVPRP
shrunken log2 fold change: 1.03

RRIRVRPPRLPRPRPRPNDEPRP
shrunken log2 fold change: -0.352

RRIRTRPPRLPRPRPRPCHIPRP
shrunken log2 fold change: -0.292

RRIRGRPPRLPRPRPRPRCTPRP
shrunken log2 fold change: 0.892

RRIRERPPRLPRPRPRPKCQPRP
shrunken log2 fold change: -0.178

RRIRHRPPRLPRPRPRPRRLPRP
shrunken log2 fold change: -0.0808

RRIRRRPPRLPRPRPRPTAWPRP
shrunken log2 fold change: 0.288

RRIRQRPPRLPRPRPRPIDDPRP
shrunken log2 fold change: -0.112

RRIRNRPPRLPRPRPRPVHQPRP
shrunken log2 fold change: -0.121

RRIRTRPPRLPRPRPRPNWRPRP
shrunken log2 fold change: 0.176

RRIRFRPPRLPRPRPRPWLKPRP
shrunken log2 fold change: -0.111

RRIRRRPPRLPRPRPRPRYQPRP
shrunken log2 fold change: 0.0511

RRIRPRPPRLPRPRPRPFHNPRP
shrunken log2 fold change: -0.541

RRIRDRPPRLPRPRPRPESFPRP
shrunken log2 fold change: -0.0579

RRIRCRPPRLPRPRPRPAAGPRP
shrunken log2 fold change: 0.378

RRIRSRPPRLPRPRPRPIHKPRP
shrunken log2 fold change: -0.165

RRIRERPPRLPRPRPRPIRWPRP
shrunken log2 fold change: -0.0251

RRIRPRPPRLPRPRPRPQIWPRP
shrunken log2 fold change: 0.0101

RRIRFRPPRLPRPRPRPFIWPRP
shrunken log2 fold change: -0.312

RRIRDRPPRLPRPRPRPYSHPRP
shrunken log2 fold change: -0.471

RRIRMRPPRLPRPRPRPVYPPRP
shrunken log2 fold change: 0.166

RRIRVRPPRLPRPRPRPNNQPRP
shrunken log2 fold change: -0.483

RRIRKRPPRLPRPRPRPNCQPRP
shrunken log2 fold change: -0.263

RRIRERPPRLPRPRPRPPARPRP
shrunken log2 fold change: 0.451

RRIRLRPPRLPRPRPRPVGVPRP
shrunken log2 fold change: -0.0387

RRIRWRPPRLPRPRPRPIFYPRP
shrunken log2 fold change: -0.0652

RRIRPRPPRLPRPRPRPAPIPRP
shrunken log2 fold change: 0.0955

RRIRMRPPRLPRPRPRPRVRPRP
shrunken log2 fold change: 0.921

RRIRFRPPRLPRPRPRPNFGPRP
shrunken log2 fold change: 0.0849

RRIRMRPPRLPRPRPRPNNCPRP
shrunken log2 fold change: -0.167

RRIRPRPPRLPRPRPRPMAAPRP
shrunken log2 fold change: 0.208

RRIRCRPPRLPRPRPRPHCDPRP
shrunken log2 fold change: -0.579

RRIRMRPPRLPRPRPRPMLVPRP
shrunken log2 fold change: 0.2

RRIRDRPPRLPRPRPRPHWSPRP
shrunken log2 fold change: -0.132

RRIRSRPPRLPRPRPRPIQIPRP
shrunken log2 fold change: -0.0243

RRIRTRPPRLPRPRPRPICQPRP
shrunken log2 fold change: -0.0148

RRIRDRPPRLPRPRPRPVRAPRP
shrunken log2 fold change: 0.325

RRIRYRPPRLPRPRPRPWYAPRP
shrunken log2 fold change: -1.43

RRIRNRPPRLPRPRPRPALFPRP
shrunken log2 fold change: 0.177

RRIRERPPRLPRPRPRPNVQPRP
shrunken log2 fold change: -0.403

RRIRTRPPRLPRPRPRPPDPPRP
shrunken log2 fold change: 0.197

RRIRHRPPRLPRPRPRPRNDPRP
shrunken log2 fold change: -0.0937

RRIRARPPRLPRPRPRPFTSPRP
shrunken log2 fold change: 0.0705

RRIRARPPRLPRPRPRPLTLPRP
shrunken log2 fold change: 0.0472

RRIRVRPPRLPRPRPRPQCQPRP
shrunken log2 fold change: 0.148

RRIRPRPPRLPRPRPRPEIGPRP
shrunken log2 fold change: 0.0772

RRIRTRPPRLPRPRPRPFVPPRP
shrunken log2 fold change: 2.01

RRIRIRPPRLPRPRPRPRWLPRP
shrunken log2 fold change: 0.119

RRIRWRPPRLPRPRPRPAYWPRP
shrunken log2 fold change: 0.473

RRIRMRPPRLPRPRPRPNGTPRP
shrunken log2 fold change: 0.0915

RRIRCRPPRLPRPRPRPSENPRP
shrunken log2 fold change: -0.154

RRIRRRPPRLPRPRPRPWHIPRP
shrunken log2 fold change: -0.246

RRIRWRPPRLPRPRPRPVRCPRP
shrunken log2 fold change: 0.418

RRIRDRPPRLPRPRPRPMSNPRP
shrunken log2 fold change: -0.0263

RRIRVRPPRLPRPRPRPIKQPRP
shrunken log2 fold change: 0.0119

RRIRDRPPRLPRPRPRPLRHPRP
shrunken log2 fold change: 0.358

RRIRHRPPRLPRPRPRPNNCPRP
shrunken log2 fold change: -0.0202

RRIRNRPPRLPRPRPRPQYDPRP
shrunken log2 fold change: -0.0449

RRIRNRPPRLPRPRPRPVQGPRP
shrunken log2 fold change: 0.295

RRIRLRPPRLPRPRPRPSTNPRP
shrunken log2 fold change: -0.451

RRIRQRPPRLPRPRPRPYNVPRP
shrunken log2 fold change: -0.0265

RRIRERPPRLPRPRPRPVHQPRP
shrunken log2 fold change: 0.107

RRIRRRPPRLPRPRPRPMPNPRP
shrunken log2 fold change: 0.129

RRIRPRPPRLPRPRPRPWQAPRP
shrunken log2 fold change: -0.0268

RRIRVRPPRLPRPRPRPKFHPRP
shrunken log2 fold change: 0.678

RRIRLRPPRLPRPRPRPAEEPRP
shrunken log2 fold change: 0.133

RRIRVRPPRLPRPRPRPQTWPRP
shrunken log2 fold change: -0.148

RRIRFRPPRLPRPRPRPRWDPRP
shrunken log2 fold change: 0.284

RRIRHRPPRLPRPRPRPMCMPRP
shrunken log2 fold change: 0.201

RRIRGRPPRLPRPRPRPLVKPRP
shrunken log2 fold change: 0.546

RRIRPRPPRLPRPRPRPHMRPRP
shrunken log2 fold change: 0.0614

RRIRARPPRLPRPRPRPKYFPRP
shrunken log2 fold change: 0.0918

RRIRNRPPRLPRPRPRPRWQPRP
shrunken log2 fold change: -0.00911

RRIRHRPPRLPRPRPRPNENPRP
shrunken log2 fold change: -0.579

RRIRWRPPRLPRPRPRPNGIPRP
shrunken log2 fold change: 0.0301

RRIRSRPPRLPRPRPRPSKDPRP
shrunken log2 fold change: -0.61

RRIRHRPPRLPRPRPRPGEIPRP
shrunken log2 fold change: 0.761

RRIRDRPPRLPRPRPRPPMSPRP
shrunken log2 fold change: 0.137

RRIRMRPPRLPRPRPRPGLEPRP
shrunken log2 fold change: 1.61

RRIRVRPPRLPRPRPRPKINPRP
shrunken log2 fold change: -0.18

RRIRNRPPRLPRPRPRPLWFPRP
shrunken log2 fold change: 0.0185

RRIRYRPPRLPRPRPRPTLNPRP
shrunken log2 fold change: -0.54

RRIRFRPPRLPRPRPRPILIPRP
shrunken log2 fold change: -0.194

RRIRRRPPRLPRPRPRPDLDPRP
shrunken log2 fold change: 0.67

RRIRPRPPRLPRPRPRPCHKPRP
shrunken log2 fold change: -0.0956

RRIRERPPRLPRPRPRPWWAPRP
shrunken log2 fold change: -0.0718

RRIRSRPPRLPRPRPRPKCFPRP
shrunken log2 fold change: 0.318

RRIRHRPPRLPRPRPRPDWEPRP
shrunken log2 fold change: -0.00783

RRIRFRPPRLPRPRPRPLMKPRP
shrunken log2 fold change: -1.06

RRIRLRPPRLPRPRPRPPQNPRP
shrunken log2 fold change: 1.26

RRIRNRPPRLPRPRPRPCAIPRP
shrunken log2 fold change: -0.0115

RRIRQRPPRLPRPRPRPTSPPRP
shrunken log2 fold change: 0.218

RRIRSRPPRLPRPRPRPKGNPRP
shrunken log2 fold change: -0.144

RRIRNRPPRLPRPRPRPIQKPRP
shrunken log2 fold change: -0.287

RRIRFRPPRLPRPRPRPNYPPRP
shrunken log2 fold change: -0.268

RRIRMRPPRLPRPRPRPERYPRP
shrunken log2 fold change: 0.362

RRIRLRPPRLPRPRPRPPIYPRP
shrunken log2 fold change: -0.15

RRIRMRPPRLPRPRPRPIMHPRP
shrunken log2 fold change: -0.128

RRIRARPPRLPRPRPRPENDPRP
shrunken log2 fold change: 0.085

RRIRYRPPRLPRPRPRPMTDPRP
shrunken log2 fold change: -0.0354

RRIRHRPPRLPRPRPRPFFLPRP
shrunken log2 fold change: -0.238

RRIRWRPPRLPRPRPRPVINPRP
shrunken log2 fold change: -0.0708

RRIRTRPPRLPRPRPRPCPPPRP
shrunken log2 fold change: -0.143
